Source: the nanobody polyreactivity screen of Harvey et al. (2022)

Test: yeast display, Sf9 membrane polyspecificity reagent, FACS + sequencing; frameworks hold sequencing errors
Procedure, shortened: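 Using colony PCR, genes from sorted yeast display clones were amplified, then sequenced on MiSeq at 2 × 250 and filtered by CDR length. The clones had been stained with 10% biotinylated, detergent-solubilized Sf9 membrane reagent for 1 hour at 4 °C and sorted by FACS into low and high (top ~1%) gates on anti-HA and streptavidin fluorescence. Polyreactivity labels come from the gate of origin.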

Row | Sequence | polyreactivity (PSR sort gate)
1 | QVQLVESGGGLVQAGGSLRLSCAASGSIFVSYAMGWYRQAPGKERELVAAITRSGGSTYYADSVKGRFTISRDNAKNTVYLQMNSLKPEDTAVYYCAARSYLGAYRRYYWGQGTQVTVSS | high polyreactivity
2 | QVQLVESGRGLVQAGGSLRLSCAASGRTLRIYAMGWYRQAPGKERELVAAITSSGRTNYADSVKGRFTISRDNAKNTVYLQMNSLKPEDTAVYYCAAVTPAVNYFRAASGYYYWGQGTQVTVSS | low polyreactivity
3 | QVQLVETGGGLVQEGGSLRISCAASGSLFDVYAMGWYRQAPGKERELVAAISSSGSTYYADSVKGRFTISRDNAKNTVYLQMNSLKTEDTAVYYCAADQADDDDYYYWGQGTQVTVSS | low polyreactivity
4 | QVQLVESGGGLVQAGGSLRLSCAASASIFNYYAMGRYRQAPGKERELVAAITSGGSTYYADSVKGRFSISRDNAKNTVYLQMNSVKPEDTAVYYCNKAFPYIYDYWGQGTQVTVSS | low polyreactivity
5 | QVQLVESGGGLVQAGGSLRLSCAASGYIFPYYAMGWYRQAPGKERELVAAISRSGGGTYYADSVKGRFTISRDNAKNTVYLQMNSLKPEDTAVYYCNRRSGHVHEYDYWGQGTQVTVSS | low polyreactivity
6 | QVQLVESGGGLVQAGGSLRLICAASGIIFYVYAMGWYRQAPGKERELVAAISFRGTSTYADSVKGRFTISRDNAKNTVYLQLNSLKPEDTAVYYCAVTGFDVLWPSLGGVLDYWGQGTQVTVSS | low polyreactivity
7 | QVQLVESGGGLVQAGGSLRLSFAASGSIFVKYAMGWYRQAPGKERELVAAITTGVGSTYYADSLKGRFTISRDNAKNTVYLQMNSLKPEDTAVYYCAVRPPRVRTVFYGGNYWGQGTQVTVSS | low polyreactivity
8 | QVHLVESGGGLVQAGGSLRLSCAASGSTFVTYTMGWYRQAPGKERELVATITASGGSTYYADSVKGRFTISRDNEKNTVYLQMNSLKPEYTAVYYCAKRRSPVERYDFWGQGTQVTVSS | low polyreactivity
9 | QVQLVESGGGLVQAGGSLRLSCAASGGIFLKYAMAWYRQAPGKERELVASINTGVRTYYADSVKGRFTISRDNAKNTVYLQMNSLKPEDTAVYYCYADGGGPRKYTRTRGHWGQGTQVTVSS | low polyreactivity
10 | QVQLVESGGGLVQARGSLRLSCSSSGSIFASYAMGWYRRAPGKERELVAAISRRAVLTYYADSVKGSFTISRDNAKNTVYLQMNSLKPEDTAVYYCNARGYSGYQRYGYNYWGQGTQVTVSS | high polyreactivity
11 | QVQLVESGGGLVQAGGSLSLSCAASGRTFQSYAMGWYRQAPGKERELVATITSRGGSTYYADSVKGRFTISRDNAKYTVYLQMNSLKPEVTAVYYCAKRFKSYLGYDYWGQGTQVTVSS | low polyreactivity
12 | QVHLVESGGGLVQAGGSLRLSCAASGRTFSAYAMGWYRQAPGKEREDVAAISRSGGSTYYADSVKGRFPISRDNAKNTVYLQMNILTPEDTAVSDCAVRWPSARIPVKLEDWGQGTQVTVSS | high polyreactivity
13 | QVQLVESDGGLVQAGGSLRLSCAASGSTFNVYAMGWNRQAPGKERELVAAITSGGSTYYADSVKGRFTISRDNANNTVYLQMISQKPEDTAVYYCADDVSLSVFKLDYWGQGTQLTVSS | low polyreactivity
14 | QVQLVESGGGLVQAGGSLRLSCAASGRTFGVYAMGWYRQAPGKERELVATIRRGGSTYYADSVKGRFTISRDNAKNTVYLQMNSLKPEDTAVYYCNASHVTWNRKYDYWGQGTQVTVSS | low polyreactivity
15 | QVQLVESGGGLVQAGGSLRLSCAASGRTFWFNAMGWYRQAPGKEREFVAAISWRGGSTYYADSVKGRFTISRDNAKNTVYLQMNSLKPEDTAVYYCAVDGEYYSDVYLYYRWDDYWGQGTQVTVSS | low polyreactivity
16 | QVQLVESGGGLVQAGGSLRLSCAASGRIFYSYAMGWYRQAPGKERELVAAINSGDRTNYADSVKGRFTISRDNAKNTVYLQMNSLKPEDTAVYYCATDDYPWRRHPWYAGYDSWGQGTQVTVSS | low polyreactivity
17 | QVQLVESGGGLLQAGGSLRLICAASGFIFVTYAMGLYRQEPGKERELVAAITNSGGTTYYADSVKGRFTISRDNAKNTVYLQMNSLKPEDTAGYYCNKPYGAETAHREFDYWGQGTQVTVSS | low polyreactivity
18 | QVQLVVSGGGLVQAGGSLRLSCAASGYIFDYNAMGWYIQSPGKERELVAAINWSGGSTYYADSVKGRFTISRDNAKNTVYLQMNSLKPEDTAVYYCNKLIYGIYYPERYAYDYWGQGTQVTVSS | low polyreactivity
19 | QVQLVESGGGLVQAGGSLRLSCAASDTPSSSMLMGWYRQAPGKERELVAAISGSDGTTYYADSVKGRFTISRDNAKNTVYLQMNSLKPEDTAVYYCAADDRVDSGYIKDDYWGQGTQVTVSS | low polyreactivity
20 | QVQLVESCGGLVQAGGSLRLICAASGRNFGHNAMGWYRQAPGKEREFVAAITYSGVRTFFADSVKGRFTISRDNAKNTVYLQMNCLKPEDTAVYYCATDWRRYYDYWGQGTQVTVSS | low polyreactivity

Row | Sequence | polyreactivity (PSR sort gate)
21 | QVQLVESGGGLVQAGGSLRLSCAASGRTFGDYAMGWYRQEPGKERELVAGITGRDSTNYADSVKGRFTISRDNAKNTVYLQMNSLIREDTAVYYCNADFWYTDISYGLATYDYWGQGTQVTVSS | high polyreactivity
22 | QVQLVESGGGLDQAGGSLRLSCAASARIYGYYANGWYRQAPGKERELVAAINSGGSTYYADSVKGRFTISRDNAKNTVYLQMNSLKPEDTAVYYCAAYKFSVHGYDYWGQGTQGTVSS | high polyreactivity
23 | QVQLVESGGGLVQAGGSLRLSCAASGITFVDNAMGWYRQAPGKERELVAVISSSGGSTYYADSVKGRFTISRDNAKNTVYLQMNSLKPEDTAVYYCAARNRFYRRPYDYWGQGTQVTVSS | high polyreactivity
24 | QVQLVESGGGLVQAGGSLRLSRAASGSTFSGYTMGWYRQAPGKERELVAAISTSGGRTSYADSVKGRFTISRDNAKTSVYLQMNSLKPEDTAVYYCAARRWERRVRPGYYPYDYWGQGTQVTVSS | high polyreactivity
25 | QVQLVESGGGLVQAGGSLRLSCAASGRIFYNYAMGWYRQAPGKERELVAAISGSGGSTYYADSVKGRFTISRDNAKNTVYLQMNSLTPEDTAVYYCSTSGPQYYSRNFDYWGQGTQVTVSS | low polyreactivity
26 | QVQLVESGGCLVQAGGSLRLTCAASGIIFYAYAMGWYRQAPGKEREFVAAINNSGGRTYYADSVKGRFTISRDNAKNTVYLQMHSLKPEDTAVYYCAVYSYYRRTYRREMDYWGQGTQVTVSS | high polyreactivity
27 | QVQLVESGGGLVQAGGSLRLSCAASGRTFRYNVMGWYRQAPGKERELVAAITYSGGRTYYADSVKGRFTISRDNVKNTVYLQMNSLKPEDTAVYYCAALSAPGYGRYNYWGQGTQVTVSS | high polyreactivity
28 | QVQLVESGGGLVQAGGSLRLSCAAYGRTFGYNTMGWYRQAPGKERELVATIRTNGVSTYYADSVKGRFTISRDNAKNTVYLQMNSLKPEDTAVYYCNADPHDQYDYWGQGTQVTVSS | low polyreactivity
29 | QVQLVESGGGLVQAGGSLRLSCAASGSIFVYYAMGWYRQAPGKERELVAAITETGGDTYYADSVKGRFTISRDNAKNTVYLQMNSLKPEDTAVYYCNTVRRSYWSWSTENSDYWGQGTQVTVSS | low polyreactivity
30 | QVQLVESGGGIVQAGGSLRLSCAASGLIFPWTYAMGWYRQAHGKEREFVAAITSSDGSTYYADSVKGRFTISRDNAKNTVYLQMNSLKPEDTAVYYCAAVGWDYDWDYYYWGQGTQVTVSS | high polyreactivity
31 | QVQLVESGGGLFQAGGSLRLSCAASGSIFDDYAMGWYRQAPGKERELVAAISSSGTSTYYADSVKGRFTISRDNAKNTVYLQMNSLKPEDTAVFYCAARSAILKSGYLMDYWGQGTQVTVSS | low polyreactivity
32 | QFKLVESGGGLVQAGGSLRLSCAASGSTFKWNAMGWYRQAPGKERELVAAITSGGSTTYADSVKGRFTISRDNAKNTVYLQMNSLKPEDTAVYYCAAAYRRHYYGVYRFDYWGQGTQVTVSS | high polyreactivity
33 | QVQLVESGGGLVQAGGSLRLSCAASGSIFYAYYMGWYRQAPGKESELVAAINWSGDSTYYADSVKGRFTISRDNAKNTVYLQMNSLKPEDTAVYYCAAVSGSGDSGEYDYWGQGTQVTVSS | low polyreactivity
34 | QVQLVESGGGLVQAGGSLRLSCAASGRILSPYAMGWYRPAPGKERELVAAISRSGGSTYYADSVKGRFTISRDNAKNTVYLQMNSLKPEDTAVYYCNAVIAWYRSDEYDYWGQGTQVTVSS | high polyreactivity
35 | QVQRVESGGGIVQAGVSLSLSCPASGRIFTSNAMGWYRQEPGKERELVAAIRWSDGSTYYADSVKGRFTISRDNAKNTVYLQMNSLKPEDTAVYYCAADTRTSYYNDDYVFWGQGTQVTVSS | low polyreactivity
36 | QVQLVESGGGLVQAGGSLRLSCAASGRNFYYYAMGWYRQAPGKEREFVARNRSSGGSTYADSVKGRFTISRDNAKNTVYLQMNSLKPEDTAVYYCARDGYTAVEYDYWGQGTQVTVSS | low polyreactivity
37 | QVQVVESGGGLVQAGGSLRLSCAASGSILGLYAMGWYRQAPGKERELVAAITYRGGRTDYADSVKGRFTISRDNAKNTVYLQMNCLKPEDTAVYYCAAGYLPRPRYSTSYLYYYWGQGTQVTVSS | high polyreactivity
38 | QVQLVESGGGLVQAGGSLRLSCAASVFISSWYDMGWYRQAPGKERQLVAAIRSSGGNTYYADSVKGRFTISRDNAKNTVYLQMNSLKPEDTAVYYCAKDWKSEDGGYYWGQGTQVTVSS | high polyreactivity
39 | QVQLVESGGGLVQAGGSLRLSCAASGRIFGPYAMGWYRQAPGKERELVAAISWSGGSTYYADSVKGRFTISRDNAKNTVFLQMNSLKPEDTAVYYCAARERRVYGDRFYKLDYWGQGTQVTVSS | high polyreactivity
40 | QVQLVESGGGLVQAGGSLRLSCAASGRTLYYYAMGWYRQAPGKEMDLVASISRGGNTNYADSVKGRFTISRDNAKNSVYLQMYSLKPEDTAVYYCAAQYSPYSFSQYVYWGQGTQVTVSS | high polyreactivity
